According to article PMC10328973:

Target: UKNP5.2.1 E2E1-I53-50A trimer (hepatitis C virus genotype 5, strain UKNP5.2.1)

B1: chimeric HEPC74 HC – VRC01 LC (antibody, V domains shown)
VH: QVQLVQSGAEVKKPGSSVKVSCTTSGGTYINYAISWVRQAPGQGLEWVGGMSPISNTPKYAQKFQGRVTITADESTSTTYMELSSLRPEDTAVYYCARDLLKYCGGGNCHSLLVDPWGQGTLVTVSS
VL: EIVLTQSPGTLSLSPGETAIISCRTSQYGSLAWYQQRPGQAPRLVIYSGSTRAAGIPDRFSGSRWGPDYNLTISNLESGDFGVYYCQQYEFFGQGTKVQVD
  neutralisation of UKNP5.2.1 HCVpp, IC50 (the only HCVpp neutralised): 4.4 µg/mL
